# According to publication PMC5702341, “Identification of Antibody and Small Molecule Antagonists of Ferroportin-Hepcidin Interaction” (Frontiers in Pharmacology, 2017):
# Where a SMILES comes first, the peptide text is derived from it. Bridges are numbered along the chain shown (N, C = ends). Side-chain parts run from the residue outwards. The star is where a group is joined. X1 = Nc1ccc2c(c1)Oc1cc(N)ccc1C21OC(=O)c2cc(C(=O)*)ccc21; Ahx = NCCCCCC(=O)O
# How the values were obtained:
# [1] = molecular target: T1, ferroportin-hepcidin interaction (T-REx/FPN-V5 cells) (Homo sapiens, UniProt Q9NP59); assay: RhoG-hepcidin uptake assay; assay type: cell-based; settings: compound 1 h prior to 250 nM RhoG-hepcidin for 1 h; read-out: IC50 inhibition of RhoG-hepcidin uptake
# T1 sequence (Q9NP59 1-571): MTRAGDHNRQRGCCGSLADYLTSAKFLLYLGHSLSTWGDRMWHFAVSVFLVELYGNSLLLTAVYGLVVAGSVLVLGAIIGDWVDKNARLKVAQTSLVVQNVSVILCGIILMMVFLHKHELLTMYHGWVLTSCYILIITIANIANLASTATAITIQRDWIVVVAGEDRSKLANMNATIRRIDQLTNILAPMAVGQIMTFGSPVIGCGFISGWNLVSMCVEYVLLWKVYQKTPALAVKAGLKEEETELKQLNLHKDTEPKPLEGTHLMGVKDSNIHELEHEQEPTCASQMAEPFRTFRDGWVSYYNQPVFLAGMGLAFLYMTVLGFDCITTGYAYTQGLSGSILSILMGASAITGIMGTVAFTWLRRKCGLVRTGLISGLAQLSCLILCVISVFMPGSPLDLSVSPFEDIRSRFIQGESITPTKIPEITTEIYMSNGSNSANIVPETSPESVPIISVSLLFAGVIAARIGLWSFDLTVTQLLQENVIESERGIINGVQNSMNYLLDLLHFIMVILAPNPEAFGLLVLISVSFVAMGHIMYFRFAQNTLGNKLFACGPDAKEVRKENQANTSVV
# T1 sequence (P81172 60-84 partner): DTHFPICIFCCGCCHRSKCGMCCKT
# From the text: (§1) In an effort to identify small molecule inhibitors of hepcidin-induced FPN internalization, we ran a small molecule screen using the cell-based iron response reporter assay described above. […] Molecules that prevented intracellular iron accumulation were further tested in the RhoG-hepcidin uptake and FPN internalization assays.
# [2] = molecular target: T1, ferroportin-hepcidin interaction (T-REx/FPN-V5 cells); assay: RhoG-hepcidin reversibility (washout) assay; assay type: cell-based; settings: for IC50: cells treated 1 h, washed to remove unbound compound, then RhoG-hepcidin, N = 3, read-out: IC50 blocking RhoG-hepcidin binding/uptake after washout
# Method: T-REx™/FPN-V5 cells plated in 96-well Packard ViewPlates at 50,000 cells/well and induced overnight as described for the BLA screening assay. […] As a control, cells were treated identically except that compound was not removed before addition of RhoG-hepcidin. Cells were fixed with 4% formaldehyde (Thermo Fisher) and stained with Hoechst nuclear dye. RhoG-Hepc uptake per cell was measured by cellular imaging.
# as §1
# (A) T-REx™/FPN-V5 cells were induced overnight and treated with small molecules for 1 h prior to addition of RhoG-hepc for 2 h. Cells were fixed/permeabilized and stained with Ab 38G6; blue = nuclei, green = RhoG-hepcidin, red = FPN. Scale bar = 20 μm.
# Reactivity with cell-based, folded FPN was assessed by the hepcidin uptake assay (Figure 9C); reactivity with the linear peptide was assessed by mass spectrometry (Figure 10A).
# FPN (T-REx/FPN-V5 cells) = assay: RhoG-hepcidin binding and displacement at 0°C on FPN-expressing cells; assay type: cell-based, human; settings: 2 h on ice, then 10X unlabeled hepcidin for 2 h on ice
# Method: To verify this work, RhoG-hepcidin was incubated with either uninduced or induced cells at 0°C. Contrary to the previous report, RhoG-hepcidin bound to FPN at this low temperature. To assess the reversibility of hepcidin binding to FPN, we incubated FPN-expressing cells with RhoG-hepcidin at 0°C to prevent internalization; we then added excess unlabeled hepcidin to determine if the labeled hepcidin could be displaced. […] We confirmed that FPN was not internalized using antibody 45D8 (Figure 11A).
# (A) T-REx™/FPN-V5 cells were allowed to equilibrate on ice for 15 min prior to addition of RhoG-hepcidin for 2 h on ice; 10X unlabeled hepcidin was added for 2 additional hours on ice. FPN was detected with Ab 45D8; scale bar = 20 μm. (B) Non-glycosylated FPN binds hepcidin and internalizes. T-REx™/FPN-V5 cells were treated ± 0.3 μg/ml tunicamycin (Tm) for 18 h, followed by treatment with 500 nM hepcidin (Hepc) for 5 h. Blot was probed with anti-V5 Ab for FPN detection and anti-cyclophilin as loading control. (C) Induced HEK-FPN-V5 cells were treated ± 0.25 μg/ml tunicamycin (Tm) for 18 h, followed by RhoG-hepcidin for 3 h; uptake was quantitated by cellular imaging (N = 4, mean ± sd).
# [3] = molecular target: ferroportin (T-REx/FPN-V5 cells) (Homo sapiens, UniProt Q9NP59); assay: cell-based
# Method: Cells were plated in 96-well Poly-D-Lysine coated plates (BD) at 50,000 cells/well and induced overnight with 10 ng/ml doxycycline (Clontech). […] FPN staining was completed as described above except that the incubations were performed at room temperature. […] Nuclei were stained with Hoechst dye. Cell surface or total FPN or intracellular hepcidin was quantitated with cellular imaging. Uninduced (non-FPN-expressing) cells served as a negative control. Images were captured from Arrayscan™ VTI (Thermo Fisher) equipped with Zeiss microscope optics and Hamamatsu ORCA®-ER CCD camera. Images were captured with 10X or 20X objectives and analyzed with the Spot Detector bioapplication. A minimum of 300 cells per well were analyzed for each condition.
# T-REx™/FPN-V5 were plated in 384-well Poly-D-Lysine coated plates (BD) at 15,000 cell/well and induced overnight as described for RhoG-hepcidin uptake assay. […] Plates were scanned on Thermo Fisher ArrayScan™ HCS Reader and analyzed with Spot Detector application. A minimum of 300 cells/well were analyzed.
# Alanine mutant peptides were tested for activity in both BLA and ferroportin internalization assays.
# Using these antibodies, it was possible to develop a quantitative cellular imaging assay that measured hepcidin-induced FPN internalization. […]
# [4] = molecular target: human ferroportin with V5 tag, on doxycycline-induced T-REx/FPN-V5 cells (human) (UniProt Q9NP59)
# [5] = molecular target: human ferroportin with V5 tag, on doxycycline-induced T-REx/FPN-V5 cells (human) (UniProt Q9NP59); remark: listed apart in the source
# [6] = molecular target: endogenous human ferroportin on T47D cells (human (endogenous in T47D)) (UniProt Q9NP59)
# [7] = molecular target: human ferroportin with V5 tag, on doxycycline-induced T-REx/FPN-V5 cells (human) (UniProt Q9NP59); remark: listed apart in the source
Compound,"FPN internalization assay EC50 (surface FPN by cellular imaging, T-REx/FPN-V5 cells) [5] [nM]","Iron response assay EC50 (β-lactamase reporter under the ferritin IRE, T-REx/FPN-V5/IRE-BLA cells) [5] [nM]",also measured
"O=S(=O)(c1ccc(Cl)cc1)c1cnc2ccccc2n1 [Compound 1, 2-[(4-chlorophenyl)sulfonyl]quinoxaline]",–,–,"IC50 [1]: 141 nM; inhibition at 100 µM ([2]; 100 μM compound, 1 h, in cells, read-out: inhibition of hepcidin uptake): 100%; IC50 [2]: 100 nM"
"CC[C@H](C)[C@@H]1NC(=O)[C@@H](NC(=O)[C@@H](NC(=O)[C@@H]2CCCN2C(=O)[C@H](Cc2ccccc2)NC(=O)[C@H](Cc2c[nH]cn2)NC(=O)[C@@H](NC(=O)[C@@H](N)CC(=O)O)[C@@H](C)O)[C@@H](C)CC)CSSC[C@@H](C(=O)N[C@@H](CCCCN)C(=O)N[C@H](C(=O)O)[C@@H](C)O)NC(=O)[C@@H]2CSSC[C@@H]3NC(=O)[C@@H]4CSSC[C@H](NC(=O)[C@H](Cc5ccccc5)NC1=O)C(=O)N[C@@H](CSSC[C@H](NC(=O)[C@H](CCCCN)NC(=O)[C@H](CCCCNC(=O)CCCCCNC(=O)c1ccc5c(c1)C(=O)OC51c5ccc(N)cc5Oc5cc(N)ccc51)NC(=O)[C@H](CCCNC(=N)N)NC(=O)[C@H](Cc1c[nH]cn1)NC3=O)C(=O)NCC(=O)N[C@@H](CCSC)C(=O)N2)C(=O)NCC(=O)N4 [RhoG-hepcidin, [Lys17(N^ε-Rhodamine green amino hexanoyl)]hepcidin] (H-DTHFPICIFCCGCCHRK([Ahx-X1])KCGMCCKT-OH; disulfide 7-23, 10-13, 11-19, 14-22 (inferred); C-terminus assumed)",–,–,reversibility of binding to FPN (FPN (T-REx/FPN-V5 cells)): reversible; EC50 [3]: ~30 nM
"NC(=O)CI [iodoacetamide, reference compound]",–,–,"inhibition of hepcidin uptake ([2]; 100 μM compound, 1 h, in cells): ~ 50%; IC50 [2]: 86000 nM"
[Lys17(N-epsilon-Rhodamine green amino hexanoyl)]hepcidin (peptide),–,–,"EC50 of FPN internalization, T-REx/FPN-V5 cells, 3 h, cellular imaging with Ab 38C8 [4]: 30 nM"
hepcidin D1A (peptide),185,144,–
hepcidin F9A (peptide),250,392,–
hepcidin H15A (peptide),10,12,–
hepcidin I6A (peptide),247,634,–
hepcidin K18A (peptide),12,13,–
hepcidin K24A (peptide),267,266,–
hepcidin R16A (peptide),56,57,–
hepcidin S17A (peptide),50,66,–
hepcidin T2A (peptide),29,29,–
"synthetic human hepcidin (wild type, unlabeled) (peptide)",51,63,"EC50 of hepcidin-induced FPN internalization, T47D cells, 6 h, surface FPN on live cells by cellular imaging with Ab 38C8 [6]: 13 nM; EC50 of hepcidin-induced FPN internalization, T-REx/FPN-V5 cells, 6 h, surface FPN on live cells by cellular imaging with Ab 38C8 [7]: 11 nM"

# Continued, in another order:
"FPN internalization assay EC50 (surface FPN by cellular imaging, T-REx/FPN-V5 cells) [5] [nM]","Iron response assay EC50 (β-lactamase reporter under the ferritin IRE, T-REx/FPN-V5/IRE-BLA cells) [5] [nM]",Compound,also measured
> 3600,> 3600,hepcidin F4A (peptide),–
212,107,hepcidin G12A (peptide),–
309,288,hepcidin G20A (peptide),–
308,298,hepcidin H3A (peptide),–
> 3600,> 3600,hepcidin I8A (peptide),–
162,112,hepcidin M21A (peptide),–
474,180,hepcidin P5A (peptide),–
39,53,hepcidin T25A (peptide),–
